This note sets out measurements from publication PMC6603201.

What all share (assay): SPR; CBP-FLAG immobilised by amine coupling on a CM5 chip (300-400 RU, 10 mM sodium acetate pH 4.5); serial dilutions of mouse chemokine flowed in triplicate for 3 min, 10 min dissociation; 25°C; HBS-EP buffer (20 mM HEPES, 150 mM NaCl, 3.4 mM EDTA, 0.005% Polysorbate 20, pH 7.4); Biacore X100; global fit with a 1:1 binding model
Test [1] concerns the target PVNZ112.6-CBP (Parapoxvirus of red deer in New Zealand (PVNZ), strain RD86).
Test [2] concerns the target PVNZ112.3-CBP (Parapoxvirus of red deer in New Zealand (PVNZ), strain RD86).
The target in test [3] is PVNZ112.0-CBP (Parapoxvirus of red deer in New Zealand (PVNZ), strain RD86).

In test [1], “recombinant mouse CCL2 (from UniProt P10148 24-148) (ligand)” showed a dissociation constant Kd of 0.03 nM, a koff of 0.00037 s⁻¹ and a kon of 1.18e+07 M⁻¹ s⁻¹.
Turning to “recombinant mouse CCL21 (from UniProt P84444 24-133) (ligand)”, in test [2], the dissociation constant Kd is 17.9 nM, the off-rate (koff) is 0.00251 s⁻¹ and the association rate constant (kon) came to 140000 M⁻¹ s⁻¹. In test [1], this molecule gave a Kd of 0.52 nM, an off-rate constant (koff) of 0.0103 s⁻¹ and a kon of 1.95e+07 M⁻¹ s⁻¹. For the same molecule, in test [3], the Kd is 12.9 nM, the off-rate (koff) came to 0.00682 s⁻¹ and the association rate constant (kon) amounted to 530000 M⁻¹ s⁻¹.

B1: recombinant mouse CCL3 (ligand)
chain: APYGADTPTACCFSYSRKIPRQFIVDYFETSSLCSQPGVIFLTKRNRQICADSKETWVQEYITDLELNA
Consider B1, for which, in test [1], the dissociation constant Kd is 2.51 nM, the off-rate (koff) came to 0.0358 s⁻¹ and the kon was found to be 1.42e+07 M⁻¹ s⁻¹.

B2: recombinant mouse CCL22 (ligand)
chain: GPYGANVEDSICCQDYIRHPLPSRLVKEFFWTSKSCRKPGVVLITVKNRDICADPRQVWVKKLLHKLS
In test [1], B2 displayed a dissociation constant (Kd) of 0.02 nM, an off-rate constant (koff) of 0.00047 s⁻¹ and a kon of 2.17e+07 M⁻¹ s⁻¹.

B3: recombinant mouse CXCL1 (ligand)
chain: APIANELRCQCLQTMAGIHLKNIQSLKVLPSGPHCTQTEVIATLKNGREACLDPEAPLVQKIVQKMLKGVPK
As to B3, in test [2], the Kd is 0.66 nM, the dissociation rate constant (koff) was found to be 0.00169 s⁻¹ and the on-rate (kon) stood at 2.54e+06 M⁻¹ s⁻¹.

B4: recombinant mouse CCL19 (ligand)
chain: GANDAEDCCLSVTQRPIPGNIVKAFRYLLNEDGCRVPAVVFTTLRGYQLCAPPDQPWVDRIIRRLKKSSAKNKGNSTRRSPVS
For the molecule B4, in test [2], the Kd turned out to be 15.8 nM, the dissociation rate constant (koff) came to 0.00158 s⁻¹ and the kon was 10000 M⁻¹ s⁻¹. Moreover, in test [1], the equilibrium dissociation constant (Kd) turned out to be 0.13 nM, the koff is 0.00132 s⁻¹ and the association rate constant (kon) came out at 1e+07 M⁻¹ s⁻¹.

B5: recombinant mouse CXCL10 (ligand)
chain: IPLARTVRCNCIHIDDGPVRMRAIGKLEIIPASLSCPRVEIIATMKKNDEQRCLNPESKTIKNLMKAFSQKRSKRAP
In test [2], B5 showed a Kd of 82.5 nM, a koff of 0.0198 s⁻¹ and a kon of 240000 M⁻¹ s⁻¹. In test [1], the Kd stood at 10.4 nM, the dissociation rate constant (koff) came out at 0.00146 s⁻¹ and the association rate constant (kon) was found to be 140000 M⁻¹ s⁻¹. In addition, in test [3], the Kd is 7.29 nM, the koff was determined as 0.00708 s⁻¹ and the kon was found to be 970000 M⁻¹ s⁻¹.

B6: recombinant mouse CXCL2 (ligand)
chain: AVVASELRCQCLKTLPRVDFKNIQSLSVTPPGPHCAQTEVIATLKGGQKVCLDPEAPLVQKIIQKILNKGKAN
B6: in test [2], the Kd was found to be 0.48 nM, the koff came to 0.00087 s⁻¹ and the on-rate (kon) was determined as 1.79e+06 M⁻¹ s⁻¹.

B7: recombinant mouse XCL1 (ligand)
chain: VGTEVLEESSCVNLQTQRLPVQKIKTYIIWEGAMRAVIFVTKRGLKICADPEAKWVKAAIKTVDGRASTRKNMAETVPTGAQRSTSTAITLTG
In test [3], B7 had a dissociation constant (Kd) of 30.8 nM, a koff of 0.00203 s⁻¹ and a kon of 60000 M⁻¹ s⁻¹.

B8: recombinant mouse CXCL4 (ligand)
chain: VTSAGPEESDGDLSCVCVKTISSGIHLKHITSLEVIKAGRHCAVPQLIATLKNGRKICLDRQAPLYKKVIKKILES
In test [2], B8 registered a Kd of 0.97 nM, an off-rate constant (koff) of 0.00126 s⁻¹ and an on-rate constant (kon) of 1.29e+06 M⁻¹ s⁻¹. In addition, in test [1], the equilibrium dissociation constant (Kd) was determined as 0.59 nM, the koff turned out to be 0.011 s⁻¹ and the kon was 1.85e+07 M⁻¹ s⁻¹. In test [3], this molecule returned a Kd of 25.9 nM, a koff of 0.0044 s⁻¹ and a kon of 170000 M⁻¹ s⁻¹.
